Results reported in doi:10.1101/2021.10.12.463902 (bioRxiv, 2021).
Where two headings read alike, the source gives them in different places.

Assays:
[1] = target: microtubules of porcine tubulin (GMPCPP or Paclitaxel stabilised, biotin and Alexa-Fluor-633 labelled) (porcine) (UniProt P02550); assay: single-molecule TIRF motility assay on microtubules
[2] = target: microtubules of porcine tubulin (GMPCPP or Paclitaxel stabilised, biotin and Alexa-Fluor-633 labelled) (porcine) (UniProt P02550); assay: as above; remark: listed apart in the source
[3] = target: Drosophila melanogaster KLP61F BASS-XL (extended Bipolar assembly domain minifilament) (Drosophila melanogaster) (UniProt P46863); assay: crystal structure
[4] = target: Taxol-stabilized microtubules (unlabeled, Alexa 647-labelled and biotinylated tubulin 50:2:1.5) (not stated (Pork or Bovine brains)) (UniProt P02550); assay: single-molecule TIRF motility assay on microtubules
[5] = target: the molecule itself; assay: as above

Sequence of Taxol-stabilized microtubules (unlabeled, Alexa 647-labelled and biotinylated tubulin 50:2:1.5) (not stated (Pork or Bovine brains)) (P02550 whole entry, looked up): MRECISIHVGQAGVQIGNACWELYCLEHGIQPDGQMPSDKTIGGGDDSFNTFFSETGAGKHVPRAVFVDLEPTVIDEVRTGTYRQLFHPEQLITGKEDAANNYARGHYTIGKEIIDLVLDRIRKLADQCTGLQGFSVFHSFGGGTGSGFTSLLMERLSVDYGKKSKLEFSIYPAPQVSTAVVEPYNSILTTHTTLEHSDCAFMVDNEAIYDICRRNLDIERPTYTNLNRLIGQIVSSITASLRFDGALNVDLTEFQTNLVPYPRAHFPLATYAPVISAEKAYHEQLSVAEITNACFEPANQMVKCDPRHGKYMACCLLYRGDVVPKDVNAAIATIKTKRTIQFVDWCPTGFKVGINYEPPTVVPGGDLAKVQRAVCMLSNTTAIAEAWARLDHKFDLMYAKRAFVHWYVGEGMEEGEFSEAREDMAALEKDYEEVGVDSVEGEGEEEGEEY
Sequence of microtubules of porcine tubulin (GMPCPP or Paclitaxel stabilised, biotin and Alexa-Fluor-633 labelled) (porcine) (P02550 whole entry, looked up, the tested form may be a part): as the sequence (P02550 whole entry, looked up) above

In the case of “Drosophila KLP61F kinesin-5 mini-tetramer without tail (kMBX), neon green tagged (from UniProt P46863 1-369; P46863 597-833)”, the dwell time at MT plus ends [1] is reported as 78 s and the dwell time at MT plus ends [2] is reported as 25 s.

“Drosophila melanogaster KLP61F BASS-XL (extended Bipolar assembly domain minifilament) (from UniProt P46863 620-804) (domain or fragment)” gave a stoichiometry N [3] of 4.

With “human Eg5 kinesin-5 mini-tetramer with tail (hMBXt), TMR labelled (from UniProt P52732 1-374; P46863 597-799; P52732 913-1056)” the dwell time at MT plus ends, longer lifetime population [4] was 484 s and the dwell time at MT plus ends, shorter lifetime population [4] was 16.4 s.

Molecule “human Eg5 kinesin-5 mini-tetramer without tail (hMBX), TMR labelled (from UniProt P52732 1-374; P46863 597-799)” has a dwell time at MT plus ends, longer lifetime population [4] of 140 s and a dwell time at MT plus ends, shorter lifetime population [4] of 14.6 s.

B1: human Eg5 kinesin-5 mini-tetramer with tail (hMBXt), TMR labelled (other, Homo sapiens | Drosophila melanogaster, UniProt P52732 1-374, looked up)
chain: MASQPNSSAKKKEEKGKNIQVVVRVRPFNLAERKASAHSIVESDPVRKEVSVRTGGLADKSSRKTYTFDMVFGASTKQIDVYRSVVAPILDEVIMGYNATIFAYGQTGTGKTFTMEGERSPNEEYTWEEDPLAGIIPRTLHQIFEKLTDNGTEFSVKVSLLEIYNEELFDLLNPSSDVSERLQMFDDPRNKRGVIIKGLEEITVHNKDEVYQILEKGAAKRTTAATLMNAYSSRSHSVFSVTIHMKETTIDGEELVKIGKLNLVDLAGSENIGRSGAVDKRAREAGNINQSLLTLGRVITALVERTPHVPYRESKLTRILQDSLGGRTRTSIIATISPASLNLEETLSTLEYAHRAKCILNKPEVNQKLTKKALAQSLQDQTNLHNKLIGEVMKISDQHSQAFVAKLMEQMQQQQLLMSKEIQTNLQVIEENNQRHKAMLDSMQEKFATIIDSSLQSVEEHAKQMHKKLEQLGAMSLPDAEELQNLQEELANERALAQQEDALLESMMMQMEQIKNLRSKNSISMSVHLNKMEESRLTRNHRIDDIKSGIQDYQKLGIEASQSAQAELTSQMEAGMLLEQDLKLDIPTGTTPQRKSYLYPSTLVRTEPREHLLDQLKRKQPELLMMLNSSENNKEETIPDVDVEEAVLGQYTEEPLSQEPSVDAGVDSSSIGGVPFFQHKKSHGKDKENRGINTLERSKVEETTEHLVTKSRLPLRAQINL
modifications: Tetra-methyl Rhodamine (TMR) on the single reactive cysteine in the neck linker (N358C)
B1: binds [5].
